Here are results for 141 substances from the supplement of paper PMC12042874.

± gives the uncertainty stated by the source.

The data set is described as follows: amyloid nucleation score (Sup35N fusion, yeast selection) (log enrichment); library NNK2; higher = more nucleation; inactive = no reads after selection. The essentials:
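Random libraries were run with three technical output replicates. In each, psi-negative yeast expressing Sup35N fused to peptides of 20 random codons were induced 24 hours with 100 μM copper sulfate and grown 7 days at 30°C on medium lacking adenine and uracil, and input and output plasmid inserts were Illumina-sequenced. The nucleation score is the DiMSum log enrichment of output over input reads, centred on the mode score of non-aggregating sequences, and sequences under 100 input reads were excluded.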
Take NIDSVLRNYSCDHRKYHSLE: the amyloid nucleation score is -0.305 ± 1.
The substance NIDSWVKGFVKY registered an amyloid nucleation score of -0.558 ± 1.
As for NIFFVRCYFNVLYNGALCHS, the amyloid nucleation score amounted to 7.025 ± 0.043.
The value for NIFQGAICYQTYGGVFPYFL was 6.151 ± 0.042; that for NINDEPPNNHMMHTITHKWT was “inactive”; that for NIRAKNRDFRLGLANRKETA was 1.15 ± 0.27.
In the case of NIRNDVLNQLT, the amyloid nucleation score amounted to 2.11 ± 0.14.
For the substance NIRTKILLGY, the amyloid nucleation score came to 0.006 ± 0.44.
As to NIVGHAHRLFNRMRCLRLYQ, the amyloid nucleation score is -0.439 ± 0.32.
For NIYNPVD, the amyloid nucleation score is -0.196 ± 1.1.
Substance NKLYFVGKWNGFVSSVCSLV registered an amyloid nucleation score of -0.942 ± 0.41.
The value for NKRHSGRFSVLQISA was 0.957 ± 0.15; that for NKVFSFDYVVNNE was “inactive”.
The same measure for NKYKLNLYMRVIGDQNNPVN: -0.249 ± 1; for NLAGKGAITDRFSQVRSGQS: 1.4 ± 0.25.
As for NLCDYSSSRLIASRNMHYTA, the amyloid nucleation score was determined as 4 ± 0.07.
With NLDDEL, the amyloid nucleation score was 0.422 ± 0.43.
Take NLDDYYDNILFTAMR: the amyloid nucleation score was 0.201 ± 0.54.
On to NLEPKNCCCCETFFISYIPT, for which the amyloid nucleation score stood at 1.09 ± 0.35.
Turning to NLGCPYCISVGC, the amyloid nucleation score is 0.649 ± 0.42.
The value for NLHATWTLDESDFLYQPCLS was 0.102 ± 0.2.
As to NLHEMLIGHGRQVRR, the amyloid nucleation score was 1.42 ± 0.36.
The value for NLHYHSSTSSTRNFKYGCAF was “inactive”; that for NLKDYIAFHNMSTAV was 2.22 ± 0.1; that for NLKRVKRMIPYYTTQ was -0.343 ± 0.33.
The substance NLLRNRARWL came in with an amyloid nucleation score of -1.08 ± 0.44.
The same measure for NLNFDPGVLF: “inactive”; for NLNMVTWVRQTHI: -0.726 ± 0.32.
The same measure for NLNVIPDCLWFYDSRMLFFI: “inactive”; for NLRRKH: 0.294 ± 0.8.
The value for NLSLAFALMTSVVNHNMWSG was 5.661 ± 0.044.
For NLSSWTVLILRSDAVVPVFL, the amyloid nucleation score is 4.07 ± 0.078.
For the substance NMCVK, the amyloid nucleation score result is “inactive”.
The value for NMDKRSNGFRKCMWLS was -0.883 ± 1.1; that for NMKGTPVYLSFYDCSRPVGW was 4.04 ± 0.11.
In turn, NMLVVFNAPYYSL yielded an amyloid nucleation score of 7.811 ± 0.049.
The value for NMMWCVKHYKSVRSLLGCLV was -0.891 ± 0.54; that for NMQFSSTFRYSGYYYLVEHW was 1.59 ± 0.13; that for NMYFCLFFRIVLLLGNDKIA was -1.06 ± 0.6.
Consider NMYSCQYVCGTALDDDWVGC, for which the amyloid nucleation score turned out to be 7.813 ± 0.059.
The same measure for NNFATLSKL: “inactive”; for NNFEI: -0.672 ± 0.6.
The same measure for NNFYKWGESCLN: -0.9 ± 0.76.
NNKYWWDVLYYNSTLLARVN showed an amyloid nucleation score of -0.225 ± 0.48.
The value for NNLLYLLLLYVQTSAE was 4.49 ± 0.099.
NNSAECRMSIKRSACGLQIA yielded an amyloid nucleation score of 0.961 ± 0.37.
As for NNYAADGRCNYWGSISLKVR, the amyloid nucleation score entry was “inactive”.
The value for NPDLNKT was 1.36 ± 0.39; that for NPLFHSPV was 0.01 ± 0.65.
In turn, NQFEGLKMRSTKLGAGGS returned an amyloid nucleation score of -0.293 ± 0.64.
Take NQNIVVAVEVQVWFICNFVH: the amyloid nucleation score was 3.08 ± 0.1.
As to NQRIGKTGFYSRSRARLNKT, the amyloid nucleation score was 3.37 ± 0.06.
NQSWRVVRQVCVEETRMMCG gave an amyloid nucleation score of 0.89 ± 0.23.
The same measure for NQTNSGQRVY: -0.208 ± 1.1; for NRAVGNEAYCRSGWSGFHSL: -0.459 ± 1.1.
NRELV: the amyloid nucleation score is -1.67 ± 0.64.
NRFFAALLFKADLFWSQF yielded an amyloid nucleation score of -0.021 ± 0.76.
The value for NRFVYLVI was -0.321 ± 0.36; that for NRGSAPYYVTICYCNLC was 8.578 ± 0.035; that for NRGTEWISGECRYHWQDVRQ was 0.109 ± 0.21.
Take NRKFHIMTFC: the amyloid nucleation score was determined as 0.415 ± 0.41.
The value for NRKRLWHYFLGTKDISIERV was “inactive”; that for NRRNLSVGYSKVHS was 0.443 ± 0.3; that for NRSAYLGRMVSI was 0.164 ± 0.44.
Take NRSTKTMSYWPLVRNLLT: the amyloid nucleation score stood at 1.51 ± 0.3.
The value for NRVTCYSMDRNIM was -0.776 ± 1.1; that for NRWKHYTDGSTL was -0.02 ± 0.39.
The same measure for NRYVEVCPFLMGTVVGLWLR: 0.851 ± 0.8; for NSESYRCERY: -0.567 ± 0.49.
The same measure for NSIYLCLSAGRFDSMKVNSE: 4.22 ± 0.076; for NSKVFS: 0.011 ± 1.1.
For NSLCLLNRQ, the amyloid nucleation score stood at 0.241 ± 0.54.
With NSLLNFWEVTLLRGGTHMVF, the amyloid nucleation score was -0.675 ± 0.29.
The same measure for NSLNI: -0.127 ± 1.1; for NSLNSMVYYEYFYFLVYVCG: -0.015 ± 0.49.
The same measure for NSNSCAHLTKTRYKSTVRYT: 2.1 ± 0.23; for NSQGYFMFIKVDHS: -1.39 ± 1.1.
The value for NSQTYTGCAVGYVLVNVMGL was 6.474 ± 0.033; that for NSVAIVQIVGASAWRGNLL was 5.128 ± 0.046; that for NSVDSRWGDQLARICIHGMT was 0.141 ± 0.42.
In turn, NSVFRTDCGKRGMVVPGRAH gave an amyloid nucleation score of 1.04 ± 0.35.
The same measure for NSVWANARRLTVCGAERGGT: 1.24 ± 0.17; for NTAFADVDAF: -0.645 ± 0.55.
The same measure for NTALSGDCVRCPSAYEWVKV: 3.25 ± 0.11.
With NTFDVVMT, the amyloid nucleation score is 0.411 ± 0.51.
For the substance NTLNVWACVGLLLQ, the amyloid nucleation score is 6.48 ± 0.075.
Take NTRASSKGIDMGYCQYH: the amyloid nucleation score turned out to be 0.066 ± 0.49.
The same measure for NTWDMLYGIWFSSLLQALLN: “inactive”; for NTWEWLLPEMSNLLSWFSEW: 0.014 ± 0.27; for NVDQEMDYDYERIGFLPIGT: -0.204 ± 0.33.
The same measure for NVDRFKVINLS: “inactive”.
The value for NVFVLFVHRVVGQELAELLG was 4.58 ± 0.065; that for NVHYLGLVCRCALVFGTNML was “inactive”; that for NVIGENLGGLLNIFDTNVSF was “inactive”.
NVIVFRMGCRILNWGAQYGR returned an amyloid nucleation score of 6.44 ± 0.082.
The same measure for NVKNKKSVSLPYSKLMRGRE: -0.17 ± 0.65; for NVLNGISKLMRHFALKYASM: 0.528 ± 0.4.
The same measure for NVLWIDLSRVKVVDGNRSPE: 6.342 ± 0.061; for NVNGLLSTN: -0.172 ± 0.76.
The same measure for NVRFY: “inactive”.
With NVSIMFRFFVYLC, the amyloid nucleation score was found to be 4.16 ± 0.066.
The value for NVSVNAEVN was -0.955 ± 0.54; that for NVTVAWFVNLSPWF was 7.288 ± 0.045.
In the case of NVVSLILVVLRASCTYLYNG, the amyloid nucleation score entry was “inactive”.
The value for NVVTG was -0.11 ± 0.42; that for NVYLTQSWSFHNLHRFYYST was 2.57 ± 0.083.
The same measure for NWCYTTSGHHRVTFGLQRLP: 4.8 ± 0.052.
The value for NWGSRNFCW was -1.26 ± 1.1; that for NWLLN was -0.492 ± 0.76.
Consider NWPGCVHNTVISDLGRVHCM, for which the amyloid nucleation score was -0.853 ± 0.56.
The value for NYFLY was 7.28 ± 0.086; that for NYHPFLVF was -0.909 ± 0.54.
The value for NYIRYLRVYYIVGDELRPGN was 8.026 ± 0.048; that for NYLASGQIIWLGYPSRSLSL was “inactive”; that for NYWGVARKFEFSDECLFLDG was 0.596 ± 0.54.
The value for NYYGSVTRHFLSFLF was “inactive”; that for PADSTMGK was -0.856 ± 0.29.
In turn, PALPTVNLNS displayed an amyloid nucleation score of -0.475 ± 0.42.
The same measure for PARLTNCGDPSY: -0.997 ± 0.3; for PAWAHVSLRLMLFYWGYLFY: “inactive”; for PCGSCPRLQQIVSRDGDDAG: 2.71 ± 0.21.
The value for PCVSMSVYILQLGPLGAWSR was 7.454 ± 0.054.
In the case of PCYGYQR, the amyloid nucleation score is -0.024 ± 0.65.
The value for PDNLCMKPFLIAGYYVPTTA was -1.55 ± 0.61; that for PDSRPIVRRSANCIWSNSWF was 1.38 ± 0.1.
As for PDSYGNFHHSSYNHDHNLVH, the amyloid nucleation score result was “inactive”.
With PDVMLCIFYIDFMQGFFDLY, the amyloid nucleation score was found to be 5.08 ± 0.07.
The same measure for PECVLVSFLRRAFELFAMCN: “inactive”; for PEHYSGATRLVH: 0.42 ± 0.47.
The same measure for PESYVGRSLSPTVLVMWKSD: 0.102 ± 1.1.
The same measure for PFDTTCLYRYYSNFYPS: 1.73 ± 0.19; for PFGGSFVSAYSTKRLCHGSH: -1.2 ± 0.48.
PFMCRLIYSELNDYIIELDE had an amyloid nucleation score of -0.081 ± 0.5.
The same measure for PFNQDMLTIQIGTSIISRSS: -0.172 ± 1.1.
Regarding PFVGSSGTWP, the amyloid nucleation score came out at 1.5 ± 0.12.
The same measure for PGEGMSQEERLMLCRCVWVT: 0.874 ± 0.52; for PGIVRGPYYGNMVIFLLKMF: 2.89 ± 0.19; for PGSRRL: 0.011 ± 0.41.
As to PHAHRNANLVWHQGKAPKGG, the amyloid nucleation score amounted to 1.12 ± 0.53.
For the substance PHHMIDAGASPSLN, the amyloid nucleation score is -1.52 ± 0.62.
The same measure for PHLFRPGTADVLYHYMTMRK: 0.628 ± 0.37.
